# In publication PMC8256087:
# Biological target: SecYEG(148/298) labeled with Cy3 and Atto647N, embedded in nanodiscs (UniProt P0AGA2)
# Assay: not stated; ratio of YidC to SecY in nanodiscs prepared with YidC at a concentration equal to that of SecYEG (SI Appendix, Fig. S9A)
binder,measurement,value
YidC (natural protein) MDSQRNLLVIALLFVSFMIWQAWEQDKNPQPQAQQTTQTTTTAAGSAADQGVPASGQGKLISVKTDVLDLTINTRGGDVEQALLPAYPKELNSTQPFQLLETSPQFIYQAQSGLTGRDGPDNPANGPRPLYNVEKDAYVLAEGQNELQVPMTYTDAAGNTFTKTFVLKRGDYAVNVNYNVQNAGEKPLEISSFGQLKQSITLPPHLDTGSSNFALHTFRGAAYSTPDEKYEKYKFDTIADNENLNISSKGGWVAMLQQYFATAWIPHNDGTNNFYTANLGNGIAAIGYKSQPVLVQPGQTGAMNSTLWVGPEIQDKMAAVAPHLDLTVDYGWLWFISQPLFKLLKWIHSFVGNWGFSIIIITFIVRGIMYPLTKAQYTSMAKMRMLQPKIQAMRERLGDDKQRISQEMMALYKAEKVNPLGGCFPLLIQMPIFLALYYMLMGSVELRQAPFALWIHDLSAQDPYYILPILMGVTMFFIQKMSPTTVTDPMQQKIMTFMPVIFTVFFLWFPSGLVLYYIVSNLVTIIQQQLIYRGLEKRGLHSREKKKS,stoichiometry N,1 YidC:SecY
